{"source": "paper PMC11925728", "about": "“Homeodomain protein PRRX1 anchors the Ku heterodimers at DNA double-strand breaks to promote nonhomologous end-joining”", "binders": {"B1": {"name": "MST blunt (Oligo#3-S/#1-A) (dsDNA)", "DNA 1": "AAGATGTTGTTTACACGAGGGCTCGAGCCCTCGTGTAAACAACATCTTTTTTTG", "DNA 2": "CAAAAAAAGATGTTGTTTACACGAGGGCTCGAGCCCTCGTGTAAACAACATCTT"}, "B2": {"name": "blunt dsDNA 54 bp, biotinylated (Oligo#1-S/#1-A) (dsDNA)", "DNA 1": "B1 DNA 1", "DNA 2": "B1 DNA 2"}, "B3": {"name": "3' overhang DNA (Oligo#1-A/#2-S) (dsDNA)", "DNA 1": "B1 DNA 2", "DNA 2": "GAGCCCTCGTGTAAACAACATCTTTTTTTG"}, "B4": {"name": "5' overhang DNA (Oligo#1-S/#2-A) (dsDNA)", "DNA 1": "B1 DNA 1", "DNA 2": "CAAAAAAAGATGTTGTTTACACGAGGGCTC"}}, "key": {"MBP-PRRX1A (MBP-PA)": {"target": "MBP-PRRX1A (MBP-PA) (UniProt P54821-2 1-217)", "sequence (P54821 other isoform, or with tags, fused parts or gaps)": "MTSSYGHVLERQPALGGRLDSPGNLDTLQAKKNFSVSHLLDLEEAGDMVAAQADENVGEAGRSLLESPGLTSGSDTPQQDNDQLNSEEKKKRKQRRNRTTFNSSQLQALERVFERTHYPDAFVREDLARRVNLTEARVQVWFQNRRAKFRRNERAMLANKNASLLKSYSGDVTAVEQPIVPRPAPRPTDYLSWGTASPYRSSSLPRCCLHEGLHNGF", "experiment": "pull-down; EMSA: 20 mM Tris-HCl pH 7.4, 10 mM MgCl2, 2.5% glycerol, 0.05% NP-40, 0.1 ug/ul BSA, RT, 200 nM DNA; MST: 20 mM Tris-HCl pH 7.4, 150 mM NaCl, 10 mM MgCl2, 2.5%", "conditions": "protein: recombinant, tags: N-term MBP (pMAL-c2X)"}, "His-PRRX1A (His-PA)": {"target": "His-PRRX1A (His-PA) (UniProt P54821-2 1-217)", "sequence (P54821 other isoform, or with tags, fused parts or gaps)": "as above", "experiment": "MST; 10 mM Mg2+; Kd only in figure; EMSA: 20 mM Tris-HCl pH 7.4, 10 mM MgCl2, 2.5% glycerol, 0.05% NP-40, 0.1 ug/ul BSA, RT, 200 nM DNA; MST: 20 mM Tris-HCl pH 7.4, 150 mM NaCl, 10 mM MgCl2, 2.5%", "conditions": "protein: recombinant; tags: His (pET-28a); label: 3' 6-FAM on strand 1; blunt"}, "MBP-PA NRRMut": {"target": "MBP-PA NRRMut (UniProt P54821-2 1-217, N144A;R145A;R146A)", "sequence (P54821 other isoform, or with tags, fused parts or gaps N144A;R145A;R146A)": "as the sequence (P54821 other isoform, or with tags, fused parts or gaps) above, with N144A, R145A, R146A counted along it", "experiment": "pull-down; EMSA: 20 mM Tris-HCl pH 7.4, 10 mM MgCl2, 2.5% glycerol, 0.05% NP-40, 0.1 ug/ul BSA, RT, 200 nM DNA; MST: 20 mM Tris-HCl pH 7.4, 150 mM NaCl, 10 mM MgCl2, 2.5%", "conditions": "protein: recombinant; tags: N-term MBP; label: 3' biotin on strand 1; blunt"}, "MBP-PA HD": {"target": "MBP-PA HD (UniProt P54821-2 94-153)", "sequence (P54821 94-153)": "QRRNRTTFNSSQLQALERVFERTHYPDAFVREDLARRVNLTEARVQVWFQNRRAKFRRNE", "experiment": "pull-down; EMSA: 20 mM Tris-HCl pH 7.4, 10 mM MgCl2, 2.5% glycerol, 0.05% NP-40, 0.1 ug/ul BSA, RT, 200 nM DNA; MST: 20 mM Tris-HCl pH 7.4, 150 mM NaCl, 10 mM MgCl2, 2.5%", "conditions": "protein: recombinant; tags: N-term MBP; label: 3' biotin on strand 1; blunt"}, "MBP-PA R146A": {"target": "MBP-PA R146A (UniProt P54821-2 1-217, R146A)", "sequence (P54821 other isoform, or with tags, fused parts or gaps R146A | R146A R146A)": "as the sequence (P54821 other isoform, or with tags, fused parts or gaps) above, with R146A counted along it", "experiment": "pull-down; dsDNA, blunt inferred; EMSA: 20 mM Tris-HCl pH 7.4, 10 mM MgCl2, 2.5% glycerol, 0.05% NP-40, 0.1 ug/ul BSA, RT, 200 nM DNA; MST: 20 mM Tris-HCl pH 7.4, 150 mM NaCl, 10 mM MgCl2, 2.5%", "conditions": "protein: recombinant, tags: N-term MBP, label: 3' biotin on strand 1"}}, "data": [{"binder": "GAGCCCTCGTGTAAACAACATCTTTTTTTG (ssDNA)", "note": "[ssDNA Oligo#2-S]", "values": [{"measurement": "binding result", "setting": "MBP-PRRX1A (MBP-PA); label: 3' biotin, single strand", "result": "no binding"}]}, {"binder": "B1", "values": [{"measurement": "binding result", "setting": "His-PRRX1A (His-PA)", "result": "binds"}]}, {"binder": "B2", "values": [{"measurement": "binding result", "setting": "MBP-PA NRRMut", "result": "no binding"}, {"measurement": "binding result", "setting": "MBP-PA HD", "result": "no binding"}, {"measurement": "binding result", "setting": "MBP-PRRX1A (MBP-PA); label: 3' biotin on strand 1, blunt", "result": "binds"}, {"measurement": "binding result", "setting": "MBP-PA R146A", "result": "no binding"}]}, {"binder": "B3", "values": [{"measurement": "binding result", "setting": "MBP-PRRX1A (MBP-PA); label: 3' biotin on strand 2, 3' overhang 24 nt (strand 1)", "result": "binds"}]}, {"binder": "B4", "values": [{"measurement": "binding result", "setting": "MBP-PRRX1A (MBP-PA); label: 3' biotin on strand 1, 5' overhang 24 nt (strand 1)", "result": "binds"}]}]}
